According to article PMC8154130 (ACS Omega, 2021):

Molecular target: the molecule itself
Assay: native gel or EMSA

B1: C-terminal truncated DDX3X (domain or fragment, human, UniProt O00571 1-582, looked up)
chain: MSHVAVENALGLDQQFAGLDLNSSDNQSGGSTASKGRYIPPHLRNREATKGFYDKDSSGWSSSKDKDAYSSFGSRSDSRGKSSFFSDRGSGSRGRFDDRGRSDYDGIGSRGDRSGFGKFERGGNSRWCDKSDEDDWSKPLPPSERLEQELFSGGNTGINFEKYDDIPVEATGNNCPPHIESFSDVEMGEIIMGNIELTRYTRPTPVQKHAIPIIKEKRDLMACAQTGSGKTAAFLLPILSQIYSDGPGEALRAMKENGRYGRRKQYPISLVLAPTRELAVQIYEEARKFSYRSRVRPCVVYGGADIGQQIRDLERGCHLLVATPGRLVDMMERGKIGLDFCKYLVLDEADRMLDMGFEPQIRRIVEQDTMPPKGVRHTMMFSATFPKEIQMLARDFLDEYIFLAVGRVGSTSENITQKVVWVEESDKRSFLLDLLNATGKDSLTLVFVETKKGADSLEDFLYHEGYACTSIHGDRSQRDREEALHQFRSGKSPILVATAVAARGLDISNVKHVINFDLPSDIEEYVHRIGRTGRVGNLGLATSFFNERNINITKDLLDLLVEAKQEVPSWLENMAYEHHYKG
B1: binds.
